B1: full-length mouse MKLP1 (other, UniProt E9Q5G3 1-953, looked up)
chain: MKSAKAKTVRKPVIKKGSQTNLKDPVGVYCRVRPLSFPDQECCVEVINSTTLQLHTPEGYRLNRNGDYKETQYSFKRVFGTHTTQKELFDVVANPLVDDLIHGKNGLLFTYGVTGSGKTYTMTGSPGSGGLLPRCLNMIFNSIGSFQAKRYVFKSNDRNSMEIQCEVDALLERQKREALPIPKTPSSKRQADPEFADMINVQEFCKAEEVDEDSVYGVFVSYIEIYNNYIYDLLEEVQFDPIKPKLPQSKTLREDKNHNMYVAGCTEVEVKSTEEAFEVFWRGQKKRRIANTHLNRESSRSHSVFSIKLVQAPLDADGDNVLQEKEQITISQLSLVDLAGSERTNRTKAEGNRLREAGNINQSLMTLRTCMEVLRENQTYGTNKMVPYRDSKLTHLFKNYFDGEGKVRMIVCVNPKAEDYEESLQVMRFAEVTQEVEVARPVDKVICGLTPGRRYRNLPRGGPVGDEPLVPEVILQSFPPLPPCKLLDINDEETLPKLADTLEKRHHLRQLMTEDLNKKCLAFKALLKEFDNSLSNKENYVQEKLNEREKVISGQKLEIERLEKKNKTLEYKIEILEKTTTIYEEDKRNLQQELESQNQKLQRQFSDKRRLEARLQGMVTETSMKWQKECERRVAATQLEMQNKLWVKDEKLKQLKAIVTEPKPEKPERPSRERDREKIIPRSVSPSPLPLSSNNIAQISNGQQLMSQPQLHRRSNSCSSISVASCISEWEQKLSPFSTPVNVTSLARHRQQEPGQSKTCIVSDRRRGMCWTEGREMVPTFSSEIGVEEDHCRRNTPIPVRHRRSRSAGSRWVDHKPASNVQTETVMQPHVPHAITVSVANEKALAKCEKYMLTHQELASDGEIQTKVIKGDVYKTRGGGQSVQFTDIETLKQELPTGSRKRRSSTLAPAQPDGTESEWTDVETRCSVAVEMRAGSQLGPGYQHHAQPKRKKP
notes: whole, on cells; Yeast two-hybrid fusion with a GAL4 domain; also called MLKP1
B2: mouse TEX14 amino acids 756 to 815, GPPX3Y-containing fragment (T4) (peptide, UniProt Q7M6U3 756-815, looked up)
chain: EVEELEWAQKELDSQCSSLRDASLKFANAKFQPAVGPPSLAYLPPVMQLPGLKQPENGGT
notes: range 756-815; Yeast two-hybrid GAL4 fusion; also called TEX14-T4
B3: full-length mouse CEP55 (other, UniProt Q8BT07 1-462, looked up)
chain: MSSRSPKDLIKSKWGSRPSSSKSDTALEKFKGEIAAFKTSLDEITSGKGKMAEKGRSRLLEKIQVLEAEREKNVYYLLEKDKEIQRLKDHLRSRYSSSSLFEQLEEKTKECEKKQQLLESLSKETDVLKNQLSATTKRLSELESKASTLHLSQSMPANCFNSSMNSIHEKEMQLKDALEKNQQWLVYDQQREAYVKGLLAKIFELEKRTETAAASLTQQMKKIESEGYLQVEKQKYDHLLENAKKDLEVERQAVTQLRLELDEFRRKYEEARKEVEDLNQLLSSQRKADIQHLEEDKQKTERIQKLREESSIFKGKLEEERKRSEELLSQVRILYDSLLKHQEEQARVALLEQQMQACTLDFENEKLDRQNMQHQLYVILKELRKAKSQITQLESLKQLHGFTITEQPFPLQREPESRVKATSPKSPSAALNDSLVECPKCSVQYPATEHRDLLVHVEYCMK
notes: whole, on cells; Yeast two-hybrid fusion with a GAL4 domain (pGBKT7 or pGADT7)

One assay has as its target T1, TX-CEP interaction (Homo sapiens, UniProt Q53EZ4).
T1 construct: expressed in transfected cells; host or cells: HEK293T
T1 sequence (Q53EZ4 157-236 limits assumed): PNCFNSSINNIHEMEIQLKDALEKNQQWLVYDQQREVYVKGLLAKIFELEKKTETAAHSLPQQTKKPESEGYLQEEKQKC
The assay can be described thus: Competition assay using the mammalian two-hybrid system, TX-CEP55 interaction. The note with it: pcDNA3 overexpression in HEK293T cells; FIG. 6C, FIG. 7 right. Type of assay: cell-based. The source says:
A modified form of the CheckMate/Flexi vector mammalian two-hybrid system (Promega) was used to study the interactions of proteins in mammalian cells. A pGL4Cherry (mCherry/GAL4UAS/Hygro) vector was engineered from the pGL4.31 (luc2P/GAL4UAS/Hygro) vector by replacing the Luc2P firefly luciferase reporter sequence with the mCherry sequence. The pACT vector expresses a protein of interest, “X,” fused to a transcriptional activation domain (VP16-AD) and the pBIND vector expresses the other protein of interest, “Y,” fused to a DNA-binding domain (GAL4-BD) and Renilla luciferase by separate promoters. […]
Sequences encoding the truncated TEX14, CEP55, ALIX, or TSG101 fragments were cloned into the multiple cloning regions of the pACT and pBIND vectors. Some exemplary constructs used are summarized in FIGS. 6A and B. pACT (protein X), pBIND (protein Y), and pGL4Cherry (mCherry/GAL4UAS/Hygro) were transiently cotransfected into HEK293T cells using Fugene 6/HD transfection reagent, and the cells were examined 44 h later for red fluorescence by using an Axiovert 40 CFL microscope (Carl Zeiss). […] The cells were lysed by using Renilla luciferase assay reagent (Promega), and red fluorescence and Renilla luciferase were measured by using a Polar Star Omega microplate reader (BMG LabTech). […]

A further assay concerns the target T2, full-length mouse TEX14 (mouse, UniProt Q7M6U3 1-1450).
T2 construct: whole, on cells; In the yeast two-hybrid assay it stood as a fusion with a GAL4 domain (pGBKT7 bait or pGADT7 prey vector)
T2 sequence (looked up): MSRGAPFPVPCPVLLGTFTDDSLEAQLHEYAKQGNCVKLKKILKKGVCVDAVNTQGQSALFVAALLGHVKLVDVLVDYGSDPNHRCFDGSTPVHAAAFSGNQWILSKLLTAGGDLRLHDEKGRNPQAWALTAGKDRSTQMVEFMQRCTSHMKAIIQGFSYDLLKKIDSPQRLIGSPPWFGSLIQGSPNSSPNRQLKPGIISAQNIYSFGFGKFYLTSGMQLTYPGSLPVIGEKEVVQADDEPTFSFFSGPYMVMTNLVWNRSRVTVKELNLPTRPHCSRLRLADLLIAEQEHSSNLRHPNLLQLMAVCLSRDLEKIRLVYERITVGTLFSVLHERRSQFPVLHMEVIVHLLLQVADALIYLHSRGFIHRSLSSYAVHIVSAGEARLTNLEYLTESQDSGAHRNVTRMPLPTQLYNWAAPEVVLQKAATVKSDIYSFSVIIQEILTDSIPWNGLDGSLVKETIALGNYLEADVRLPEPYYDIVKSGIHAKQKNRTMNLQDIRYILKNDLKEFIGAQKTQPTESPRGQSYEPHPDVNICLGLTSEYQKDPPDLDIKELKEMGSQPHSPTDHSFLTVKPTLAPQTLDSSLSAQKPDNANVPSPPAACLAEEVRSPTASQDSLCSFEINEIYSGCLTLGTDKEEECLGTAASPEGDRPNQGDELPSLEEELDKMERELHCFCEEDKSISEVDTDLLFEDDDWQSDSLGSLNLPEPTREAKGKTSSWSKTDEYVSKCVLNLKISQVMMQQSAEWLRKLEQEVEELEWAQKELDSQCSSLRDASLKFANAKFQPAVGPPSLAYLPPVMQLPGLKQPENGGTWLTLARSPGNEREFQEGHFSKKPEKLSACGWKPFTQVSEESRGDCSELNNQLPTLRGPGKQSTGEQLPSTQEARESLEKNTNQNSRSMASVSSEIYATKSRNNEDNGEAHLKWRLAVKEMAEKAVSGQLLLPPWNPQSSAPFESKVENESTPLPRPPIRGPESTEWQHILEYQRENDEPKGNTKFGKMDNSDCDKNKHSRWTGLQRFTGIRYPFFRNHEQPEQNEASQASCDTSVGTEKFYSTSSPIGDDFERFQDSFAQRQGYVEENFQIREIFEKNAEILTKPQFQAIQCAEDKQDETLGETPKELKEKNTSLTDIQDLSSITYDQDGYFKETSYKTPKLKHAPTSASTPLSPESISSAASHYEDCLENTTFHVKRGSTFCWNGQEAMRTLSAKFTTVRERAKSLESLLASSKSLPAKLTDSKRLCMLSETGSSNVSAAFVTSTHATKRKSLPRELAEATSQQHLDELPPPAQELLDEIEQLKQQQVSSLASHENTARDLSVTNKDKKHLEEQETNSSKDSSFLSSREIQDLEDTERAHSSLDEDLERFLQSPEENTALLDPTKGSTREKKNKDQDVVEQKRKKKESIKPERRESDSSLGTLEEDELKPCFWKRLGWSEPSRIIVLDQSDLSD
The assay can be described thus: yeast two-hybrid, full-length proteins, oxygen biosensor and selection plates. How it is done: (A) Immunoprecipitation (IP) of FLAG-TEX14 and/or MYC-CEP55 from HEK293T cells, followed by Western blot analysis with the antibodies as shown. Immunoprecipitation of protein G (lanes G) is the control. (B) Yeast two-hybrid analyses using vectors encoding full-length mouse TEX14, MKLP1, CEP55, and positive and negative controls. The relative ratios of TEX14-TEX14, TEX14-MKLP1, and TEX14-CEP55 interactions were determined by using an oxygen-biosensor system. (C) Yeast two-hybrid interactions of mouse and human full-length TEX14 and CEP55. (a) Yeast were stably transformed with vectors and plated for yeast two-hybrid analysis as depicted. SV40 T antigen with p53 and SV40 T antigen with lamin C were used as positive and negative controls, respectively. (b) Interactions between the two-hybrid proteins are evident by colony growth and blue color on selection plates.
(§1) Protein-protein interactions were evaluated by using the Matchmaker Two-Hybrid System 3 (Clontech) as described previously (10). Mouse full-length TEX14 and MLKP1 were previously subcloned into the Matchmaker GAL4 two-hybrid pGBKT7 and pGADT7 vectors (10). The constructs of full-length mouse and human CEP55, human TEX14, truncated mouse CEP55-C1, and truncated mouse TEX14-T1, T2, T1[…]T2, T3, T4, and T4-C were made by using the Matchmaker GAL4 two-hybrid pGBKT7 bait vector and pGADT7 prey vectors. Some Y2H interactions were examined with an oxygen biosensor assay (Clontech PT3584-1) that measured the fluorescence emitted by an oxygen-sensing platform that detects GAL4.
Since both CEP55 and TEX14 interact with MKLP1 (10, 22), it was determined whether CEP55 and TEX14 are components of the intercellular bridge as direct or indirect interactors. The inventors first overexpressed full-length FLAG-TEX14 and MYC-CEP55 constructs in HEK293T cells (FIG. 2A). […] Likewise, when the inventors immunoprecipitate with anti-MYC antibody, they immunoprecipitate both MYC-CEP55 and FLAG-TEX14.

The assay “full-length mouse CEP55” has as its target B3. The assay is described as follows: yeast two-hybrid. How it is done:
as §1
To determine the relevance of this GPPX3Y motif as it relates to the interaction of TEX14 with CEP55, we performed yeast two-hybrid assays with mouse TEX14 amino acids 756 to 815 that contain the GPPX3Y motif (FIG. 3A). These 60 amino acids interacted with full-length CEP55 (FIGS. 3B and C). Conversely, an 80-amino-acid fragment of CEP55 (C1) that contains the hinge region interacted with full-length TEX14, the C terminus (T3), and GPPX3Y-containing fragment (T4) but not a shorter sequence that lacked the GPPX3Y motif (T4-C) (FIG. 3A to C). Thus, similar GPPX3Y-containing regions of TEX14, ALIX, and TSG101 interact with the hinge region of CEP55.

As to “ALIX: truncated ALIX region including the GPPX3Y motif, pcDNA3 overexpression vector (ATAPSPVGAGTAAPAPSQTPGSAPPPQAQGPPYPTYPGYPGYCQMPMPMGYNPYAYGQYN)”, the “effect of overexpression on TX-CEP interaction” value in the assay with TX-CEP interaction is “fails to disrupt”. The same measure, in the same setting: the entry for “TSG: truncated TSG101 region including the GPPX3Y motif, pcDNA3 overexpression vector (MIVVFGDEPPVFSRPISASYPPYQATGPPNTSYMPGMPGGISPYPSGYPPNPSGYPGCPY)” is “fails to disrupt”. In the case of B1, in the assay with full-length mouse TEX14, the binding result is on record as “binds”. B2: in the assay with full-length mouse CEP55, the binding result was “binds”. B3: in the assay with full-length mouse TEX14, the binding result is on record as “binds”.

(Values after patent publication US20130225503A1, “TEX14 PEPTIDES AS NOVEL ANTITUMOR AGENTS” (Baylor Licnensing Group, priority 2009, published 2013).)
